Data taken from publication PMC10684670.

Assays:
rhNKp30-his protein = rhNKp30-his protein (UniProt O14931); test: flow cytometry on cells; details: 293T cells stably expressing B7-H6, stained with his-tagged NKp30; parent: est. 1.0; read off a plot
CHX chase, WB, 293T = details: glycan lost; control: DMSO
CHX chase, WB, U87 = details: glycan lost; control: DMSO
[1] = CHX chase, WB, stable 293T; details: glycan lost; control: wild type
[2] = surface B7-H6 flow cytometry, HCT-116; details: glycan lost; control: wild type
[3] = surface B7-H6 flow cytometry, HEK293T; details: glycan lost; control: wild type
[4] = WB of TCA-precipitated supernatant, HEK293T; details: glycan lost; control: wild type
[5] = WB of TCA-precipitated supernatant, HCT-116; details: glycan lost; control: wild type

| Molecule | degradation_or_half_life, half_life [1] | localisation_or_trafficking [2] | localisation_or_trafficking [3] | other results |
| --- | --- | --- | --- | --- |
| B7-H6, wild type, stably expressed on B7-H6 knockout 293T cells (from UniProt Q68D85) N411Q |  |  |  | ratio to parent (rhNKp30-his protein): 0.94 |
| B7-H6: tunicamycin (protein) parent chain: MTWRAAASTCAALLILLWALTTEGDLKVEMMAGGTQITPLNDNVTIFCNIFYSQPLNITSMGITWFWKSLTFDKEVKVFEFFGDHQEAFRPGAIVSPWRLKSGDASLRLPGIQLEEAGEYRCEVVVTPLKAQGTVQLEVVASPASRLLLDQVGMKENEDKYMCESSGFYPEAINITWEKQTQKFPHPIEISEDVITGPTIKNMDGTFNVTSCLKLNSSQEDPGTVYQCVVRHASLHTPLRSNFTLTAARHSLSETEKTDNFSIHWWPISFIGVGLVLLIVLIPWKKICNKSSSAYTPLKCILKHWNSFDTQTLKKEHLIFFCTRAWPSYQLQDGEAWPPEGSVNINTIQQLDVFCRQEGKWSEVPYVQAFFALRDNPDLCQCCRIDPALLTVTSGKSIDDNSTKSEKQTPREHSDAVPDAPILPVSPIWEPPPATTSTTPVLSSQPPTLLLPLQ |  |  |  | degradation_or_half_life, half_life (CHX chase, WB, 293T): decreases, 17.36 vs 47.42; degradation_or_half_life, half_life (CHX chase, WB, U87): decreases, 12.83 vs 27.14 |
| B7-H6: N43Q (protein) parent chain: MTWRAAASTCAALLILLWALTTEGDLKVEMMAGGTQITPLNDNVTIFCNIFYSQPLNITSMGITWFWKSLTFDKEVKVFEFFGDHQEAFRPGAIVSPWRLKSGDASLRLPGIQLEEAGEYRCEVVVTPLKAQGTVQLEVVASPASRLLLDQVGMKENEDKYMCESSGFYPEAINITWEKQTQKFPHPIEISEDVITGPTIKNMDGTFNVTSCLKLNSSQEDPGTVYQCVVRHASLHTPLRSNFTLTAARHSLSETEKTDNFSIHWWPISFIGVGLVLLIVLIPWKKICNKSSSAYTPLKCILKHWNSFDTQTLKKEHLIFFCTRAWPSYQLQDGEAWPPEGSVNINTIQQLDVFCRQEGKWSEVPYVQAFFALRDNPDLCQCCRIDPALLTVTSGKSIDDNSTKSEKQTPREHSDAVPDAPILPVSPIWEPPPATTSTTPVLSSQPPTLLLPLQ | decreases, 5 vs about 52 | decreases | decreases |  |
| B7-H6: N208Q (protein) parent chain: MTWRAAASTCAALLILLWALTTEGDLKVEMMAGGTQITPLNDNVTIFCNIFYSQPLNITSMGITWFWKSLTFDKEVKVFEFFGDHQEAFRPGAIVSPWRLKSGDASLRLPGIQLEEAGEYRCEVVVTPLKAQGTVQLEVVASPASRLLLDQVGMKENEDKYMCESSGFYPEAINITWEKQTQKFPHPIEISEDVITGPTIKNMDGTFNVTSCLKLNSSQEDPGTVYQCVVRHASLHTPLRSNFTLTAARHSLSETEKTDNFSIHWWPISFIGVGLVLLIVLIPWKKICNKSSSAYTPLKCILKHWNSFDTQTLKKEHLIFFCTRAWPSYQLQDGEAWPPEGSVNINTIQQLDVFCRQEGKWSEVPYVQAFFALRDNPDLCQCCRIDPALLTVTSGKSIDDNSTKSEKQTPREHSDAVPDAPILPVSPIWEPPPATTSTTPVLSSQPPTLLLPLQ | decreases, 15 vs about 52 | decreases | decreases | other: shedding of soluble B7-H6 [4]: increases; other: shedding of soluble B7-H6 [5]: increases |
